Test [1] has as its target T1, CD11b (mouse), on the CD11b+ mutuDC dendritic cell line and on cells of lymphoid organs (mouse, UniProt P05555 17-1153).
T1 construct: whole, on cells; Its partner chain on the cell surface is not mentioned
The test is described as follows: FACS, CD11b+ mutuDC dendritic cell line stained in vitro with Alexa647-labeled DC13 monomer or dimer; reference DC13 monomer. The source says:
Cells were harvested and analyzed with FACS.
Four sortase substrates were designed and synthesized for production of dimers or PEGylated VHHs (FIG. 1). The substrates either contain two bioorthogonal handles or a handle and a flourophore. The Alexa647-labeled substrate was designed such that the reaction products could be used in FACS experiments to estimate relative in vitro binding affinities. […] The dimers were produced as exemplified in FIG. 2. For DC8 (anti Class II), splenocytes were stained with different concentrations of monomers and dimers and analyzed by FACS. For DC13 (anti CD11b), the CD11b⁺ mutuDC dendritic cell line was used. For Class II MHC and CD11b, VHH dimers bind approximately 3.3 and 2.3-fold better than their corresponding monomers respectively (FIG. 3). The in vivo binding characteristics of the VHH dimers versus monomers were evaluated. Due to the more abundant expression of Class II MHC molecules on splenocytes compared to that of CD11b, the in vivo binding affinity for anti-Class II dimers was explored. Mice were injected i.v. with equal amounts of monomers and dimers (0.25 nmol) of DC8. 2 h p.i., mice were euthanized and lymphoid organs were excised for examination. Monomers and dimers yielded different staining patterns (FIG. 3B), with the dimer showing interspersed yet more pronounced staining than the monomer, corroborating the FACS results. […]
(In general: In flow cytometry, cells or beads pass a laser one at a time.)

The target of test [2] is Class II MHC (mouse), on splenocytes and lymphoid organ cells (mouse). The test is described as follows: FACS, splenocytes stained in vitro with different concentrations of Alexa647-labeled DC8 monomer or dimer; reference DC8 monomer.
Test [3] has the same target. The test is described as follows: FACS of spleen cells harvested 3 h after i.v. injection of Alexa647-labeled VHH into B6 mice; reference non-PEGylated DC8-Alexa647.
For test [4] the target is unchanged. Put plainly: FACS of spleen cells harvested 3 h after i.v. injection of Alexa647-labeled VHH into B6 mice; reference non-PEGylated DC8-Alexa647; no staining in the spleen of an MHC II-/- mouse.

Chain of Class II MHC (mouse), on splenocytes and lymphoid organ cells (mouse) (P14434 24-256, chain 1 of 2): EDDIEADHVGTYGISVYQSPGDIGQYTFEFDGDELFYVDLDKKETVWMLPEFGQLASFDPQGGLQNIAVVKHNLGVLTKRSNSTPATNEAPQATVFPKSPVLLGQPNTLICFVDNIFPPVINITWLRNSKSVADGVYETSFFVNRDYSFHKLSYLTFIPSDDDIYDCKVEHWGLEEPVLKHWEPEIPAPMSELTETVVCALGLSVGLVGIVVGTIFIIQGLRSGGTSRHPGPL
Chain of Class II MHC (mouse), on splenocytes and lymphoid organ cells (mouse) (P14483 28-265, chain 2 of 2, further chain): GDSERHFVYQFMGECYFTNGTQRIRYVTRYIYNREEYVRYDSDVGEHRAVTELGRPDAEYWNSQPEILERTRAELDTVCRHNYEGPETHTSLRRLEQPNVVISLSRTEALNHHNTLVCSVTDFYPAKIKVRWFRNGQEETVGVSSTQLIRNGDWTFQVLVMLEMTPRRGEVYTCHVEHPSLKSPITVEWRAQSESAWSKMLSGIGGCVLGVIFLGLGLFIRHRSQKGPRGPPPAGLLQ
T1 sequence (P05555 17-1153): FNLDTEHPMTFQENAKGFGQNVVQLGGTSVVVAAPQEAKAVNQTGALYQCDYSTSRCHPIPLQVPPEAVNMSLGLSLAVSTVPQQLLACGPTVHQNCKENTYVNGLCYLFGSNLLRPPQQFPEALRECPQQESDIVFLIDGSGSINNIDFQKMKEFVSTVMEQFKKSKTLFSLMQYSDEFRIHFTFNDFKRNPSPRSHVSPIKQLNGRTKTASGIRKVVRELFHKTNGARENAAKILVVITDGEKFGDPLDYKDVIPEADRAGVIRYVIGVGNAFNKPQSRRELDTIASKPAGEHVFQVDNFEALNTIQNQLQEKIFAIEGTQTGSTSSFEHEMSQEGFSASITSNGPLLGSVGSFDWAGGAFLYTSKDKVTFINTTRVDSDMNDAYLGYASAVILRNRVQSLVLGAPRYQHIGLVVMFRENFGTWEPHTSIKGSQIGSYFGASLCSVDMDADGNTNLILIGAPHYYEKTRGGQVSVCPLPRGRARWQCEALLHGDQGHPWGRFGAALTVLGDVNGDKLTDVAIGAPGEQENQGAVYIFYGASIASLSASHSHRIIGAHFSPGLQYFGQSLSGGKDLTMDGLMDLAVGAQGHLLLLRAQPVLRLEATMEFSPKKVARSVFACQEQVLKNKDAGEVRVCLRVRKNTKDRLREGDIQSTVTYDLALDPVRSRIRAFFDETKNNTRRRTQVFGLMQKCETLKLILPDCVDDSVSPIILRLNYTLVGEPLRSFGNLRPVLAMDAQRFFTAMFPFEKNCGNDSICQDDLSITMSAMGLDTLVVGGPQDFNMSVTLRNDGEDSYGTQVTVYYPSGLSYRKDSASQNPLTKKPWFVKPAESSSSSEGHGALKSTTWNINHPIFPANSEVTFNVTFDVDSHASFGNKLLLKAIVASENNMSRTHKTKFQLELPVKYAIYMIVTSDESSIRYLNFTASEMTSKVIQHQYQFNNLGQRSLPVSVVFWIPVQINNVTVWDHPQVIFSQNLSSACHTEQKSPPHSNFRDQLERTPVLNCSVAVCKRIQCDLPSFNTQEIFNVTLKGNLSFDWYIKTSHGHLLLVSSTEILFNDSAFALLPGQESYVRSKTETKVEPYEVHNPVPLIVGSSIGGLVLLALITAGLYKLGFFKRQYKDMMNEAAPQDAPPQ

B1: DC13-dimer (bivalent DC13, two DC13 VHHs joined through their C-termini) (VHH)
VHH: QVQLQESGGGLVQTGGSLRLSCAASGVDFNWYSMGWFRQAPGKEREYVASIDQGGELDYAISVKGRFTISRDNAKNMVYLQMNSLKPEDTAVYYCAADFSGRGASNPDKYKYWGQGTQVTVSS
modifications: Each chain is sortagged at LPET. One carries (Gly)3-Cys(maleimide-DBCO), the other (Gly)3-PEG12-Cys(X)-PEG5-Lys(azide), where X is Alexa647, Texas Red or TCO/18F-tetrazine. The two chains are joined C-terminus to C-terminus by DBCO-azide click chemistry.
notes: This is a chemical C-to-C dimer; also called anti CD11b dimer; 18F-DC13 dimer
Consider B1, for which, in test [1], the “fold better binding than the corresponding monomer” value was about 2.3 fold.

B2: DC8-dimer (bivalent DC8, two DC8 VHHs joined through their C-termini) (VHH)
VHH: QVQLQESGGGLVQPGGSLRLSCTASGFTFSTYYMSWVRKAPGKGPEWVSVMNSSGGDTRYADFVKGRFTISRDNAKNTLYLQMNSLKPEDTALYYCAQGRSDIYPTFTRGQGTQVTVSS
modifications: Each chain is sortagged at LPET. One carries (Gly)3-Cys(maleimide-DBCO), the other (Gly)3-PEG12-Cys(X)-PEG5-Lys(azide), where X is Alexa647, Texas Red or TCO/18F-tetrazine. The two chains are joined C-terminus to C-terminus by DBCO-azide click chemistry.
In turn, B2 had a fold better binding than the corresponding monomer in test [2] of 3.3 fold.

B3: DC8-Alexa647-PEG-10 kDa (PEGylated DC8, 10 kDa PEG) (VHH)
VHH: QVQLQESGGGLVQPGGSLRLSCTASGFTFSTYYMSWVRKAPGKGPEWVSVMNSSGGDTRYADFVKGRFTISRDNAKNTLYLQMNSLKPEDTALYYCAQGRSDIYPTFTRGQGTQVTVSS
modifications: Sortagged at LPET with (Gly)3-PEG12-Cys(X)-PEG5-Lys(azide), where X is Alexa647, Texas Red or TCO/18F-tetrazine. DBCO-PEG 10 kDa is clicked onto the azide.
With B3, in test [3], the increase in staining versus non-PEGylated DC8 was 100%.

B4: DC8-Alexa647-PEG-5 kDa (PEGylated DC8, 5 kDa PEG) (VHH)
VHH: QVQLQESGGGLVQPGGSLRLSCTASGFTFSTYYMSWVRKAPGKGPEWVSVMNSSGGDTRYADFVKGRFTISRDNAKNTLYLQMNSLKPEDTALYYCAQGRSDIYPTFTRGQGTQVTVSS
modifications: Sortagged at LPET with (Gly)3-PEG12-Cys(X)-PEG5-Lys(azide), where X is Alexa647, Texas Red or TCO/18F-tetrazine. DBCO-PEG 5 kDa is clicked onto the azide.
Molecule B4 had an increase in staining versus non-PEGylated DC8 in test [3] of 30%.

B5: DC8-Alexa647-PEG-20 kDa (PEGylated DC8, 20 kDa PEG) (VHH)
VHH: QVQLQESGGGLVQPGGSLRLSCTASGFTFSTYYMSWVRKAPGKGPEWVSVMNSSGGDTRYADFVKGRFTISRDNAKNTLYLQMNSLKPEDTALYYCAQGRSDIYPTFTRGQGTQVTVSS
modifications: Sortagged at LPET with (Gly)3-PEG12-Cys(X)-PEG5-Lys(azide), where X is Alexa647, Texas Red or TCO/18F-tetrazine. DBCO-PEG 20 kDa is clicked onto the azide.
In test [4], B5 gave an increase in staining versus non-PEGylated DC8 of 220%.

The values above are taken from patent US20180280551A1 (published 2018).
